Laboratory results published in US20220204599A1 (PRESTIGE BIOPHARMA, published 2022).

Tests used:
[1] = biological target: T1, collagen triple helix repeat containing-1 (CTHRC1) protein (Homo sapiens (Human), UniProt Q96CG8 31-243); test: indirect ELISA, CTHRC1 coated at 5 µg/mL, anti-human Fc-HRP
T1 construct: The coated protein may in fact have been CTHRC1-His or CTHRC1-Fc
Procedure: The affinity of cCMAb45 and cCMAb96, which are anti-CTHRC1 chimeric antibodies, prepared in Example 1-3 to the CTHRC1 protein was verified. Indirect ELISA was performed to test the affinity of the antigens and antibodies.
100 μL of CTHRC1 was dispensed at a concentration of 5 μg/mL onto an immuno-plate and coated at 4° C. overnight. The next day, the coated CTHRC1 solution was discarded and blocked for 2 hours. Thereafter, the cCMAb45 and cCMAb96 antibodies were treated at different concentrations and reacted at room temperature for 2 hours, and the antibodies were discarded to remove the unbound antibodies, and then the plate was washed. The OD value was measured using the anti-human Fc-HRP as a second antibody that recognizes human constant regions. In particular, the higher OD value indicates higher affinity between CTHRC1 and the antibodies.

CTHRC1-His = biological target: T2, CTHRC1-His (Homo sapiens (Human), UniProt Q96CG8 30-243); test: indirect ELISA, CTHRC1-His coated, re-measurement
T2 construct: also called antigen CTHRC1-His
T2 sequence (Q96CG8 other isoform, or with tags, fused parts or gaps limits assumed): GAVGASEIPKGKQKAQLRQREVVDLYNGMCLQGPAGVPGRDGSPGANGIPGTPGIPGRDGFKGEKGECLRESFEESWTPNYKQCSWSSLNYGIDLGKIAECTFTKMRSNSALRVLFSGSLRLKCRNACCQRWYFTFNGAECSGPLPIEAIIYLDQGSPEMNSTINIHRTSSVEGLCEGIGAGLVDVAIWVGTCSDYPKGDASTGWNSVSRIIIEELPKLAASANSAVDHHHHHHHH

T1 sequence (Q96CG8 31-243 limits assumed): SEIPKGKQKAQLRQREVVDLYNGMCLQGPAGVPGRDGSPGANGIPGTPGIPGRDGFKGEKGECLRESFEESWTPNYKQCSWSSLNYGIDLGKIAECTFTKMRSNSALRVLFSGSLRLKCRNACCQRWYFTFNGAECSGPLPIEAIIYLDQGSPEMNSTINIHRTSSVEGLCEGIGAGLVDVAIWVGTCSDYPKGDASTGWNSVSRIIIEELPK

Kd [1]	binding result (CTHRC1-His)	Binder
0.52 nM	–	cCMAb45 anti-CTHRC1 chimeric antibody (antibody, V domains shown, Detected with anti-human kappa light chain-HRP, so the light chain is kappa; also called chimeric 4H5) VH: EVQLQQSGPELVKPGASVKISCKASGYSFTDYIMLWVKQSHGKSLEWIGNINPYYGSTSYNLKFKGKATLTVDKSSSTAYMQLNSLTSEDSAVYYCARSGYGYDESAMDYWGQGTSVTVSS VL: DVLMTQTPLSLPVNIGDQASISCKSTKSLLNSDGFTYLDWYLQKPGQSPQLLIYLVSNRFSGVPDRFSGSGSGTDFTLKISRVEAEDLGVYYCFQSNYLPLTFGSGTKLEIK
–	binds	hCMAb96 humanized anti-CTHRC1 antibody (antibody, V domains shown, Humanized IgG made by CDR grafting and expressed in HEK293F; also called SA2770; humanized 9E6) VH: QVQLVQSGAEVKKPGASVKVSCKASGYTFTSYWMHWVRQAPGQGLEWIGYIYPSSGTTNYNQKFQGRVTITADESTSTAYMELSPLRSEDTAVYYCTTESYWGQGTTVTVSS VL: DIQMTQSPSSLSASLGDTITITCHASQNINVWLAWYQQKPGKAPKLLIYKASNLHSGVPSRFSGSGSGTDFTLTISSLQPEDIATYYCQQGQSYPLTFGQGTKVEIK

Further lines, the binder ahead of its results:

Binder	Kd [1]	binding result (CTHRC1-His)
hCMAb45 humanized anti-CTHRC1 antibody (antibody, V domains shown, Humanized IgG made by CDR grafting and expressed in HEK293F; also called SA2765; humanized 4H5) VH: QVQLVESGAEVKKPGASVKVSCKASGYSFTDYIILWVRQAPGQGLEWMGAINPYYGSTVYGQKFQGRLTITADGSMSTAYMELSSLRSEDTAVYYCARSGYGYDESAMDYWGQGTLVTVSS VL: DIVMTQTPLSLPVTPGEPASISCRSSKSLLNSDGFTYLDWYLQKPGQSPQLLIYLVSNRFSGVPDRFSGSGSGTDFTLKISRVEAEDVGVYYCFQSNYLPLTFGQGTKLEIK	–	binds
cCMAb96 anti-CTHRC1 chimeric antibody (antibody, V domains shown, Detected with anti-human kappa light chain-HRP, so the light chain is kappa; also called chimeric 9E6) VH: QVQLQQPGSELVRPGASVKLSCKASGYTFTSYWMHWVKQRPGQGLEWIGNIYPSSGTTNYDEKFKNKATLTVDTSSTTAYMHLSSLTSEDSAVYYCTTESYWGQGTTLTVSS VL: DIVMTQSPSSLSASLGDTITITCHASQNINVWLSWYQQKPGNIPKLLIYKASNLHTGVPSRFSGSGSGTGFTLTISSLQPEDIATYYCQQGQSYPLTFGGGTKLEIK	0.43 nM	–
